Source: patent publication US20200102389A1 (Hoffmann-La Roche, published 2020)

Assays:
[1] = biological target: T1, modified human HLA-G β2M MHC class I complex (HLA-G specific amino acids replaced by HLA-A consensus amino … (human)); assay: SPR (Biacore T200), antibody captured, HLA-G complex injected
T1 construct: also called degrafted HLA-G

[2] = biological target: T2, recombinant soluble human HLA-G β2M MHC class I complex, dimer (human); assay: competition ELISA, immobilised HLA-G dimer, antibody titrated, competitor c-myc ILT4
T2 construct: also called HLA-G Dimer; fraction A9
Method: The ELISA was set up by coating the biotinylated antigen wt HLA-G to strepdavidin plates. After incubation and washing steps, the respective antibodies were bound in a concentration range from 8-0 μg in 1:3 dilution steps. C-myc tagged ILT-2 or -4 receptor was added to the HLA-G-antibody complexes. After incubation and washing steps, detection of bound receptor was carried out by anti-cmyc-antibody-POD conjugates. IC50 values were determined from the resulting inhibition curves at the antibody concentrations generating the half-maximal inhibition. In case of the non-biotinylated HLA-G dimer and trimer antigens, immobilization was carried out by random coating on assay plates.

[3] = biological target: T1, modified human HLA-G β2M MHC class I …; assay: SPR (Biacore T200), antibody captured via anti-Fc, degrafted HLA-G complex injected, 25 C, 1:1 fit
Method: Binding kinetics of anti-HLA-G antibodies to human HLA-G, human HLA-G degrafted and human HLA-A2 were investigated by surface plasmon resonance using a BIACORE T200 instrument (GE Healthcare). All experiments were performed at 25° C. using PBS Buffer (pH 7.4+0.05% Tween20) as running buffer and PBS Buffer (+0.1% BSA) as dilution buffer. Anti-human Fc (JIR009-005-098, Jackson) or anti-rat Fc (JIR112-005-071, Jackson) or anti-Mouse Fc (JIR115-005-071, Jackson) antibodies were immobilized on a Series S CM5 Sensor Chip (GE Healthcare) at pH 5.0 by using an amine coupling kit supplied by GE Healthcare. Anti-HLA-G antibodies were captured on the surface leading to a capturing response of 50-200 RU. HLA-G molecules were injected for 180 s at 30 μl/min with concentrations from 2.5 up to 800 nM (2×1:2 and 4×1:3 dilution series) onto the surface (association phase). The dissociation phase was monitored for 300-600 sec by washing with running buffer. […] Bulk refractive index differences were corrected by subtracting the response obtained from a mock surface. Blank injections were subtracted (double referencing). The derived curves were fitted to a 1:1 Langmuir binding model using the BIAevaluation software.
The above table summarizes the antibody affinities and t1/2 values against wt and degrafted HLA-G as assessed by Surface plasmon resonance (Biacore) analysis. Binding kinetics of anti-HLA-G antibodies to human HLA-G, human HLA-G degrafted and human HLA-A2 were investigated by surface plasmon resonance using a BIACORE T200 instrument (GE Healthcare). All experiments were performed at 25° C. using PBS Buffer (pH 7.4+0.05% Tween20) as running buffer and PBS Buffer (+0.1% BSA) as dilution buffer. Anti-human Fc (JIR009-005-098, Jackson) or anti-rat Fc (JIR112-005-071, Jackson) or anti-Mouse Fc (JIR115-005-071, Jackson) antibodies were immobilized on a Series S CM5 Sensor Chip (GE

Binder	binding result [1]	IC50 [2] [µM]	Kd [3] [µM]	koff [3] [s⁻¹]	kon [3] [M⁻¹ s⁻¹]	t ½ [3] [s]
HLA-G-0032 (antibody, V domains shown) VH: QVQLQQSGAELVKPGSSVKISCKASGYSFPSYDMHWIKQQPGNGLEWIGWIYPGNGNTKYNQKFNGKASLTADKSSSTAYMQLSSLTSEDSAVYFCAKPTVATRYNWFAYWGQGTLVTVSS VL: QIVLTQSPALMSASPGEKVTMTCSASSSVNYMHWYQQKPRSSPKPWIYLTSNLASGVPARFSGSGSGTSYSLTISTMEAEDAATYYCQQWSSNLPITFGSGTKLEIK	no binding (tested: 2.5 up to 800 nM)	0.0503				
HLA-G-0033 (antibody, V domains shown) VH: EVQLVETGGGLVQSGRSLKLSCVASGFTFNDYWMTWTRQAPGKGLEWVASITNSGGRTYYLDSVRGRFTISRDDAQNTLYLQMNSLRSEDTATYYCTKERIYLTAYWFFDFWGPGTMVTVSS VL: DTILTQSPALAVSPGERVTISCRASESVSTLIHWYQQKPGQRPKLLIYLASHLESGVPARFSGSGSGTDFTLTIDPVEADDTATYYCQQSWNEPRTFGGGTKLELK		0.0313	0.00362	0.0345	9.54e+06	18
HLA-G-0037 (antibody, V domains shown) VH: QVQLKESGPGLVQPSQTLSLTCSVSGFSLTTYSVSWVRQPPGKGLEWIGAIWSGGSTDYNSALKSRLRISRDTSKSQVLLKMNSLQTEDRAMYFCVRMNNKFGYWYFDLWGPGTMVTVSS VL: DTVLTQSPTLAVSPGEKITISCRASETVSTMLHWYQQKPGQQPKLLISLASHLESGVPARFTGSGSGTDFTLTIDPVEADDTATYYCQQTWNDPLTFGSGTKLEIK			2.12	0.116	54700	6
